Results as given in patent US20120283421A1.

Biological target: nine-person peanut-specific IgE antibody pool
Experiment: competitive ELISA inhibition, pooled serum IgE on coated crude peanut

IC50: 0.4 ng/mL
B1: Ara h 2 (purified from peanut) (protein)
chain: QQWELQGDRRCQSQLERANLRPCEQHLMQKIQRDEDSYERDPYSPSQDPYSPSPYDRRGAGSSQHQERCCNELNEFENNQRCMCEALQQIMENQSDRLQGRQQEQQFKRELRNLPQQCGLRAPQRCDLDVESGGRDRY
modifications: 20% carbohydrate
